Test system: MS2 coat protein
Test: apparent KD of MS2 coat protein; designed switch direction (-1 OFF switch, 1 ON switch): -1; higher = weaker reporter binding
Method in brief: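 The reported apparent KD is a per-design median over clusters, from curve fits of normalised cluster fluorescence. Protein titrations used SNAP-549-labelled MS2 coat protein, doubled from 0.7 or 1.5 nM to 3 µM, in Tris-HCl pH 7.5 buffer with KCl, MgCl2, BSA, DTT, tRNA and Tween-20, with no input, 200 uM small-molecule ligand, or an oligonucleotide input. The RNA switches were transcribed on Illumina chips by stalled E. coli RNA polymerase.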

[1] = Eterna round: R95, input ligand: FMN 200 uM
[2] = Eterna round: R95, input ligand: microRNA oligo, concentration not stated
[3] = Eterna round: R95, input ligand: none
[4] = input ligand: microRNA oligo, concentration not stated

| Sequence | apparent KD of MS2 coat protein (input ligand: FMN 200 uM) [nM] | apparent KD of MS2 coat protein (input ligand: none) [nM] | apparent KD of MS2 coat protein [1] [nM] | apparent KD of MS2 coat protein [2] [nM] | apparent KD of MS2 coat protein [3] [nM] | apparent KD of MS2 coat protein [4] [nM] |
| --- | --- | --- | --- | --- | --- | --- |
| ACAAGCUAUCUCUUAUCUUACAUGAGGAUCACCCAUGUUUUUUCAAUUUUGUUUGGUCUCCUUUGUGCUCGUCUUAU [JR_STOV1_Sub053] (Eterna round: R97, puzzle: Sensor, turn-off variant 1) | 53.2 | 55.2 | – | – | – | – |
| ACAAGCUGGCUCGUCUUAUACAUGAGGAUCACCCAUGUUCUCAAGGUCUUAUGUACUGACACGAAAGUGUUAGUAAU [AK-miRNA-r3-2] (Eterna round: R97, puzzle: Sensor, turn-off variant 1) | 29.8 | 30.2 | – | – | – | – |
| ACAAGCUUAAAAGGUGAUAACAUGAGGAUCACCCAUGUUCGUCUUAUAAAGAUCCUAUGUCGAAAGACGUAGGAUCA [Sensor 3, v1 - 69] (puzzle: Sensor v3, turn-off variant 1) | – | – | 21.2 | 28 | 22 | – |
| ACAAGCUUUGAUAUCCUUAACAUGAGGAUCACCCAUGUUCGUCUUAUGAUGGUCUGAUCCCUGAGGAUCGGACCGUU [JL-sv1-2.08 Brourd Mod] (puzzle: Sensor v3, turn-off variant 1) | – | – | 33.7 | 96.2 | 35.5 | – |
| ACAAGCUUUGUUGGGUGGUACAUGAGGAUCACCCAUGUUUGCCGCGUCUUGUGGGCCCGGGCCCGCGGCCCGGGCCC [-41.8, -63.9, A 12%] (Eterna round: R97, puzzle: Sensor, turn-off variant 1) | 403 | 460 | – | – | – | – |
| ACAAGCUUUGUUGUGGGUGACAUGAGGAUCACCCAUGUUUGCCGCGUCUUGUGGGCCCGGGCCCGCGGCCCGGGCCC [-42.5, -64.4, A 12%] (Eterna round: R97, puzzle: Sensor, turn-off variant 1) | 202 | 173 | – | – | – | – |
| ACAAGCUUUUAGAUUUUCAACAUGAGGAUCACCCAUGUUCGUCUUGGGCUAGUGCGAGUGCGGUGUACUCGUAUUAG [JL TOV1 3.83 sellena mod] (Eterna round: R97, puzzle: Sensor, turn-off variant 1) | 23.2 | 23.4 | – | – | – | – |
| ACAAGCUUUUCGAUCCUCCACAUGAGGAUCACCCAUGUGCUCGACUUGUAAAGUACUAUCACGAAAGUGAUAGUACA [Sensor, turn off variant 1 v.1] (Eterna round: R97, puzzle: Sensor, turn-off variant 1) | 455 | 629 | – | – | – | – |
| ACAAGCUUUUUGCAUGUUAGGUUUGUUGCUUCGUAUGUAACAUGAGGAUCACCCAUGUAUUACUGAUGUCGUCGUUU [JR_SV3TOV2_Sub089] (puzzle: Sensor v3, turn-off variant 2) | – | – | 18.4 | 17.2 | 18.2 | – |
| ACAAGCUUUUUGUUCGUCUUAUAAUAAUAAAUAAAUAUAACAUGAGGAUCACCCAUGUUGAGAAGACGGCCUCAUGU [Sesor Array 22 - Jieux - Sensor v3, turn-off variant 2] (puzzle: Sensor v3, turn-off variant 2) | – | – | 134 | 31.8 | 203 | – |
| ACAAUUAUGACAGGAUAUAGUUUUUGUUGGUCACUAGAAGGGUCUAUGCACAUGAGGAUCACCCAUGUUCUUUUUAUUUGCGAU [JR_ExcNG1_Sub017] (Eterna round: R96, puzzle: Exclusion NG 1) | 29.9 | 39.9 | – | – | – | 27.1 |
| ACACAACAUGAGGAUCACCCAUGUCAGGAUAUGCAGAACAAGAACAAGACAAGACAGAGCAGAAGGGACAACAC [Ex 1 M5] (Eterna round: R96, puzzle: Exclusion 1) | 49 | 36.3 | – | – | – | 29.6 |
| ACACAACAUGAGGAUCACCCAUGUCAGGAUAUGCAGAACAAGAACAAGACAAGACAGAGCAGAAGGGACAACAC [Ex 1 M5] (puzzle: Exclusion 1) | – | – | – | 32.8 | – | – |
| ACACAAGCCCUUUGCUCGUUUUAAUACAGCGGGCUCUCCACAUGAGGAUCACCCAUGUAGGCCUUGUUCCAAGGCCG [Maerarce] (puzzle: Sensor v3, turn-off variant 2) | – | – | 22.6 | 22.3 | 21.8 | – |
| ACACACAGAGGAUAUCUUCCGCAUGACAUGAGGAUCACCCAUGUGUGCAUGCCCAAAGGUAGAGAAGGCUGUGUGU [eternacac ex5r4 #4] (Eterna round: R97, puzzle: Exclusion 5) | 24.9 | 22.2 | – | – | – | – |
| ACACUACAUGUAGGAUAUGCGUGGCGAAGCUAUGCAGAAGGACAUGAGGAUCACCCAUGUUUUAGCGUCUGCGUACAGAUGCGU [JL ENG1 1.46] (Eterna round: R96, puzzle: Exclusion NG 1) | 44.7 | 19.3 | – | – | – | 16.4 |

| Sequence | apparent KD of MS2 coat protein (input ligand: FMN 200 uM) [nM] | apparent KD of MS2 coat protein (input ligand: none) [nM] | apparent KD of MS2 coat protein [1] [nM] | apparent KD of MS2 coat protein [2] [nM] | apparent KD of MS2 coat protein [3] [nM] | apparent KD of MS2 coat protein [4] [nM] |
| --- | --- | --- | --- | --- | --- | --- |
| ACAGGCUUUUUGCUCGUCUACAUGAGGAUCACCCAUGUGGGAUUGUUGGUUGUGUUGCUUGUUUGUGCUCGUCUUGU [Low Nucleotide] (Eterna round: R97, puzzle: Sensor, turn-off variant 1) | 16.1 | 17.6 | – | – | – | – |
| ACAGGUUUCAUAGGAUAUCUCUGACUAUGGCACUCCUUGUGUCCACAUGAGGAUCACCCAUGUCGAGAGAAGGGUGCACCUGCG [Arenena] (Eterna round: R96, puzzle: Exclusion NG 2) | 147 | 65.7 | – | – | – | 64.9 |
| ACAGUGUUAGGAUAUCUGAGAGUUAGUCUCGACUAGUCGAAGGAGAAGGAACAUGAGGAUCACCCAUGUAGAUC [EX4 #77] (Eterna round: R97, puzzle: Exclusion 4) | 144 | 35.8 | – | – | – | – |
| ACAUAAAAGGCAGGAUAUUCAAACCCAUAGCUAGAAGAAGGGCCGAAGAACUUCUAACAUGAGGAUCACCCAUGUGAGCAUGGG [Ininesxeed] (Eterna round: R96, puzzle: Exclusion NG 1) | 82.4 | 64.6 | – | – | – | 43.9 |
| ACAUCACAGCUAGGAUAUAUAUGACAUGAGGAUCACCCAUGUUGUCCCAUGUUGACGAAAACCGAAUAGAAGGAGCUACAGAUG [Ex NG2 #4] (Eterna round: R96, puzzle: Exclusion NG 2) | 53.2 | 64.2 | – | – | – | 54.9 |
| ACAUGACAGCUAGGAUAUAUAUGACAUGAGGAUCACCCAUGUUGUCCCAUGUUGACGAAAACCGAAUAGAAGGAGCCACCCAUG [Ex NG2 #2] (Eterna round: R96, puzzle: Exclusion NG 2) | 86.1 | 71.4 | – | – | – | 53.6 |
| ACAUGACUGCUAGGAUAUAGAUGACAUGAGGAUCACCCAUGUUGUCCCAUGUUUAUGGAAACGGACUAGAAGGAGCAGUAUAUG [Ex NG2 #13] (Eterna round: R96, puzzle: Exclusion NG 2) | 18.8 | 20.2 | – | – | – | 26.2 |
| ACAUGAGGAUCACCCAUGUAAUGAUGGGUACUAUAUUAUUCGUAGGAUAUCGUUGUUAGUUUGUUCGAGAAGGACGAUUGCCUU [JR_ExcNG3_Sub054] (Eterna round: R96, puzzle: Exclusion NG 3) | 612 | 520 | – | – | – | 385 |
| ACAUGAGGAUCACCCAUGUACGGUUGGUUUUCUCCGGCUGUUGAGGAUAUAGUCCGGUAUCCGCGCUAGAAGGUGAGGGUUGGC [Aenatbe mod 11] (Eterna round: R96, puzzle: Exclusion NG 3) | 104 | 87.6 | – | – | – | 74.6 |
| ACAUGAGGAUCACCCAUGUAGACAGCUGCAACCGGUGAAAGACAGGAUAUGUGACGGCACAGGGAACAGAAGGGUCAAAGAAAA [Ceatasoes] (Eterna round: R96, puzzle: Exclusion NG 3) | 21.2 | 30.9 | – | – | – | 22 |
| ACAUGAGGAUCACCCAUGUCAGGCUGGUCCACUCCGGCUGUUGAGGAUAUAGCCCGGUAUCCGCGCUAGAAGGUGAGGGCCGGC [Aenatbe mod 27] (Eterna round: R96, puzzle: Exclusion NG 3) | 25.5 | 23 | – | – | – | 17.6 |
| ACAUGAGGAUCACCCAUGUCAGGCUGGUCCGCUCCGGCUGUUGAGGAUAUAGCCCGGUAUCCGCGCUAGAAGGUGAGGGCCGGC [Aenatbe mod 28] (Eterna round: R96, puzzle: Exclusion NG 3) | 24.8 | 28.4 | – | – | – | 26.3 |
| ACAUGAGGAUCACCCAUGUCAGGCUGGUCCGCUCCGGCUGUUGAGGAUAUAGCUCGGUGUCCGCGCUAGAAGGUGAGGGCCGGC [Aenatbe mod 32] (Eterna round: R96, puzzle: Exclusion NG 3) | 25.3 | 24.6 | – | – | – | 19.3 |
| ACAUGAGGAUCACCCAUGUCCGGCUGGUCCGUCUCGGCUGUCGAGGAUAUAGCUUGGUGUCCGCGCUAGAAGGUGGGAGCUGGU [Aenatbe mod 69] (Eterna round: R96, puzzle: Exclusion NG 3) | 99.7 | 96.6 | – | – | – | 53.1 |
| ACAUGAGGAUCACCCAUGUCCGGCUGGUCUGGUCCGGCUGUCGAGGAUAUAGUCCGGUGUUCGCGCUAGAAGGCGAGGGCUGGA [Aenatbe mod 49] (Eterna round: R96, puzzle: Exclusion NG 3) | 109 | 97.5 | – | – | – | 68.3 |
